# Results published in publication PMC6862599, “Molecular Cloning and Exploration of the Biochemical and Functional Analysis of Recombinant Glucose-6-Phosphate Dehydrogenase from Gluconoacetobacter diazotrophicus PAL5” (International Journal of Molecular Sciences, 2019).
# Tests used:
# [1] = target: glucose-6-phosphate dehydrogenase (G6PD) from Gluconacetobacter diazotrophicus PAL5 (Gluconacetobacter diazotrophicus PAL5); test: SEC; Sephacryl 200 (16/60) gel filtration column, 100 mM Tris-HCl pH 7.35, 0.01 M MgCl2, 0.3 mL/min, AKTA pure FPLC; calibrated with Bio-Rad gel filtration standard; oligomeric state of the native protein
# purified protein [2] = substrate: O=P(O)(O)OC[C@H]1OC(O)[C@H](O)[C@@H](O)[C@@H]1O; test: purified protein; assay type: biochemical, Gluconacetobacter diazotrophicus; settings: NADP+ fixed at 72 µM (~10-fold Km), G6P 0 to 2 mM
# purified protein [3] = substrate: NC(=O)c1ccc[n+]([C@@H]2O[C@H](COP(=O)(O)OP(=O)(O)OC[C@H]3O[C@@H](n4cnc5c(N)ncnc54)[C@H](OP(=O)(O)O)[C@@H]3O)[C@@H](O)[C@H]2O)c1; test: purified protein; assay type: biochemical, Gluconacetobacter diazotrophicus; settings: G6P fixed at 630 µM (~10-fold Km), NADP+ 0 to 250 µM
Molecule,stoichiometry N [1],Km (purified protein [2]) [µM],Km (purified protein [3]) [µM]
glucose-6-phosphate dehydrogenase (G6PD) from Gluconacetobacter diazotrophicus PAL5 (enzyme),4,–,–
"G6PD from GDI (Gluconacetobacter diazotrophicus PA1 5) (protein, full-length, N-terminal His6 tag removed by TEV protease, E. coli BL21(DE3)pLysS, 510 residues (ORF 1530 bp), 56,483 Da monomer, homotetramer 220 kDa) MDGIVASASSEIQGAGLQPRRAPPCTFVVFGGGGDLTKRLLVPAIYNLACAGLLDDGFSIVAVDWAELSDDILRAQFHEALQDFVAKRGTAAAVLRDDIWRWLNTRVSYLRGSFEDPATFERLGARIGSGNAVFYLAVAARFFGTIVDRLGESHLTDEVGETYRRVIVEKPFGHDLNSARELNIRLLRTLRERQIYRIDHYLGKETVQNIMALRFSNGFFEPLWNRQNIDHVQITAAETVGVEKRGRFYEGTGALRDMVPNHLMQLLAMTAMEAPVSFDADAVRDEKSKVLKAIHCTGPEDVVRGQYGGGVLGGTPVRGYRDEPDVAPASRTETYVAMKLAIDNWRWAGVPFYLRTGKRLAVRKTEIAIHFRRAPYALFRDTPVDRLTPNIMTIHIQPTEGVTLQFGAKIPGPTVRLGGVRMKFDYSEWFSEGPSTGYETLIYDCLTGDATLFQRADNIEAGWRAVQPALDWGERTEAAPLCPYAAGSAGPIEADALLARDGRQWQDLAE",–,63,7.2
